pKd: −log10 of the molar value.
Biological target: MvaT F36D/M44D (P. aeruginosa) (UniProt Q9HW86)
Experiment: ITC

Substance	pKd	stoichiometry N
gp4 K42E/K45E (natural protein)	5.87	0.52
gp4 of Pseudomonas phage LUZ24 (natural protein)	6.77	0.56
